What all share (experiment): peptide SPOT array, c-Myc-tagged receptor at 1 uM or 100 nM, anti-c-Myc-Cy3
One assay has as its target T1, Bfl-1, Q16548.
T1 chain: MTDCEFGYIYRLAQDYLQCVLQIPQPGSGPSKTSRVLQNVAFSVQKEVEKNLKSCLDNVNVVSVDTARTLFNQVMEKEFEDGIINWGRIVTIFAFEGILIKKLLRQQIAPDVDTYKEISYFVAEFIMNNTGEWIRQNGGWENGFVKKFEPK

The target in another assay is T2, Mcl-1, Q07820.
T2 chain: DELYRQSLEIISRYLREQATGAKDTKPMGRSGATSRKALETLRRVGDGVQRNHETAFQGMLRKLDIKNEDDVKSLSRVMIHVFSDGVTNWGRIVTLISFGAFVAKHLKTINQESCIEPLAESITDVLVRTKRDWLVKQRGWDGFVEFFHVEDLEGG

The target of the next assay is Bcl-xL, Q07817.
Sequence of Bcl-xL, Q07817 (Q07817 1-209): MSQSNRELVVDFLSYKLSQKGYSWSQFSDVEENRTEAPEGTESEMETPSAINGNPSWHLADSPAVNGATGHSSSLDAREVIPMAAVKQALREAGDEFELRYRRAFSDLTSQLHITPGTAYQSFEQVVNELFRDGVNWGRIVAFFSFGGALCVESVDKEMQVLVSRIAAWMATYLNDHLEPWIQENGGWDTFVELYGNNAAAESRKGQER

For the molecule LNLLMISVAFLRVILDQLEKLCDSLL [SLC38A8], the SPOT signal as a fraction of Bim BH3's signal on the same receptor and array with Bfl-1, Q16548 turned out to be 0.05; with Mcl-1, Q07820, 0.04; with Bcl-xL, Q07817, 0.07.

Regarding KKLKNLEGNELQRHLDEFLLDLGHHE [FUT8], the SPOT signal as a fraction of Bim BH3's signal on the same receptor and array was 0.04 with Bfl-1, Q16548; 0.05 in the assay with Mcl-1, Q07820; 0.08 with Bcl-xL, Q07817.

With PYLSKHRADRMRRLGDFLNQESFDLA [SMPD2], the SPOT signal as a fraction of Bim BH3's signal on the same receptor and array with Bfl-1, Q16548 was 0.69; with Mcl-1, Q07820 it was 0.71; with Bcl-xL, Q07817, 1.3.

With NNNMDVESRTMATMLDTLASRGLLDA [SEC16A], the SPOT signal as a fraction of Bim BH3's signal on the same receptor and array with Bfl-1, Q16548 is 0.05; with Mcl-1, Q07820, 0.03; with Bcl-xL, Q07817, 0.04.

In the case of ELDEDDLEAEDDALGDELLADEDSSY, the SPOT signal as a fraction of Bim BH3's signal on the same receptor and array was 0.03 with Bfl-1, Q16548; 0.03 with Mcl-1, Q07820; 0.06 with Bcl-xL, Q07817.

Regarding ELDEDDLEAELDALLDELLADEDSSY, the SPOT signal as a fraction of Bim BH3's signal on the same receptor and array amounted to 0.03 with Bfl-1, Q16548; 0.03 in the assay with Mcl-1, Q07820; 0.06 with Bcl-xL, Q07817.

Turning to VLAPVQLGKWLVLFLDEINLPDMDKY [DYNC1H1], the SPOT signal as a fraction of Bim BH3's signal on the same receptor and array is 0.07 in the assay with Bfl-1, Q16548; 0.08 with Mcl-1, Q07820; 0.08 with Bcl-xL, Q07817.

On to MRSQLGKATALAIMGDKLWWADQVSE, for which the SPOT signal as a fraction of Bim BH3's signal on the same receptor and array with Bfl-1, Q16548 was 0.14; with Mcl-1, Q07820 it was 0.28; with Bcl-xL, Q07817 it was 0.22.

Regarding TAAAAYRGAHDRGRGRTVYNTFRAAA [XXXX], the SPOT signal as a fraction of Bim BH3's signal on the same receptor and array with Bfl-1, Q16548 turned out to be 1.4; in the assay with Mcl-1, Q07820 it was 1.43; in the assay with Bcl-xL, Q07817 it was 2.54.

Turning to THFLDEEVKLDKKMGDHLTNLHRLGG [FTL], the SPOT signal as a fraction of Bim BH3's signal on the same receptor and array with Bfl-1, Q16548 was found to be 0.03; with Mcl-1, Q07820 it was 0.05; with Bcl-xL, Q07817, 0.07.

As for MPYMEAVIHEDQRFGDVIPMSLARRV [CYP2A6], the SPOT signal as a fraction of Bim BH3's signal on the same receptor and array with Bfl-1, Q16548 amounted to 0.04; in the assay with Mcl-1, Q07820, 0.07; in the assay with Bcl-xL, Q07817 it was 0.07.

Regarding GGRVKLVHSALIQLLDSLSHKGNEFW, the SPOT signal as a fraction of Bim BH3's signal on the same receptor and array with Bfl-1, Q16548 came to 0.23; in the assay with Mcl-1, Q07820, 0.23; with Bcl-xL, Q07817 it was 0.28.

Turning to ELLYGIWSNCDGLISDSFHMFFDSTA, the SPOT signal as a fraction of Bim BH3's signal on the same receptor and array with Bfl-1, Q16548 came out at 0.05; with Mcl-1, Q07820, 0.05; with Bcl-xL, Q07817, 0.06.

On to GGRVKLVHSADIQLGDSLSHKGNEFW, for which the SPOT signal as a fraction of Bim BH3's signal on the same receptor and array with Bfl-1, Q16548 is 0.24; in the assay with Mcl-1, Q07820 it was 0.23; in the assay with Bcl-xL, Q07817 it was 0.2.

With FTCKNKFCKPLFWVLDSVNDCGDNSD [ST14], the SPOT signal as a fraction of Bim BH3's signal on the same receptor and array turned out to be 0.12 with Bfl-1, Q16548; 0.27 with Mcl-1, Q07820; 0.23 with Bcl-xL, Q07817.

Regarding MSLFLRVVFSFTMFLDLFEEEYSTVS [USP40], the SPOT signal as a fraction of Bim BH3's signal on the same receptor and array with Bfl-1, Q16548 turned out to be 0.04; with Mcl-1, Q07820, 0.06; with Bcl-xL, Q07817, 0.06.

Turning to LWAAQRYGREDRRMSDEFVDSFKKGL [BAD], the SPOT signal as a fraction of Bim BH3's signal on the same receptor and array with Bfl-1, Q16548 came out at 0.3; in the assay with Mcl-1, Q07820, 0.51; in the assay with Bcl-xL, Q07817, 0.53.

Turning to RMIVDCVSSHDKKTGDGAKTFIIFLC [BBS10], the SPOT signal as a fraction of Bim BH3's signal on the same receptor and array with Bfl-1, Q16548 was 0.09; with Mcl-1, Q07820, 0.08; in the assay with Bcl-xL, Q07817, 0.17.

As to ELLYGIWSNCLGLISDSFHMFFDSTA, the SPOT signal as a fraction of Bim BH3's signal on the same receptor and array was 0.06 with Bfl-1, Q16548; 0.06 in the assay with Mcl-1, Q07820; 0.07 in the assay with Bcl-xL, Q07817.

For MRSQLGKATADAIMGDKLWWADQVSE, the SPOT signal as a fraction of Bim BH3's signal on the same receptor and array came to 0.12 with Bfl-1, Q16548; 0.16 in the assay with Mcl-1, Q07820; 0.17 with Bcl-xL, Q07817.

Turning to PSECETLGSNLGHNLDLLNENNILAK [ZFP90], the SPOT signal as a fraction of Bim BH3's signal on the same receptor and array was determined as 0.04 in the assay with Bfl-1, Q16548; 0.04 in the assay with Mcl-1, Q07820; 0.1 with Bcl-xL, Q07817.

Regarding YFKLFRASGDMRTNGDNYLYEIQLSS [IGF2R], the SPOT signal as a fraction of Bim BH3's signal on the same receptor and array with Bfl-1, Q16548 worked out at 0.47; in the assay with Mcl-1, Q07820 it was 0.43; with Bcl-xL, Q07817, 0.41.

Turning to EAVTDGLKRALRSFLNALGNCILDKD [RAD52], the SPOT signal as a fraction of Bim BH3's signal on the same receptor and array came out at 0.04 with Bfl-1, Q16548; 0.08 with Mcl-1, Q07820; 0.08 in the assay with Bcl-xL, Q07817.

For FGEYSGISENDILVGDDFWIPETSFI [ROS1], the SPOT signal as a fraction of Bim BH3's signal on the same receptor and array in the assay with Bfl-1, Q16548 was 0.04; with Mcl-1, Q07820, 0.04; in the assay with Bcl-xL, Q07817, 0.07.

On to WVKSIRICTPMGKLGDSCHPLTRKVP [PROK2], for which the SPOT signal as a fraction of Bim BH3's signal on the same receptor and array amounted to 0.56 in the assay with Bfl-1, Q16548; 0.81 with Mcl-1, Q07820; 1.07 with Bcl-xL, Q07817.

On to LDFTFVCPTEIIAFLDRLEEFRSINT [PRDX4], for which the SPOT signal as a fraction of Bim BH3's signal on the same receptor and array with Bfl-1, Q16548 was 0.04; with Mcl-1, Q07820, 0.05; with Bcl-xL, Q07817, 0.05.

With SSTMGQVGRQDAIIGDDINRRYDSEF [BAK1], the SPOT signal as a fraction of Bim BH3's signal on the same receptor and array was determined as 0.01 with Bfl-1, Q16548; 0.01 in the assay with Mcl-1, Q07820; 0.02 with Bcl-xL, Q07817.

Turning to PKKKMTLSEIYQWILDNFPYYREAGS [FOXJ3], the SPOT signal as a fraction of Bim BH3's signal on the same receptor and array in the assay with Bfl-1, Q16548 was 0.1; in the assay with Mcl-1, Q07820, 0.16; with Bcl-xL, Q07817, 0.15.
